Measurements from patent US20220251235A1 (published 2022).

Experiments:
[1] = molecular target: T1, MAGEA10 peptide on HLA-A*02:04 (human); experiment: cytokine release
T1 peptide: SLLKFLAKV

peptide on HLA-A*02:01 = molecular target: T2, peptide on HLA-A*02:01 (human); experiment: cytokine release
T2 peptide: KLYGLDWAEL

[2] = molecular target: T3, MAGEA10 peptide on HLA-A*02:01 (human); experiment: multimer staining
T3 peptide: SLLKFLAKV

- binding result [1]: recognises
- binding result (peptide on HLA-A*02:01): no recognition
- binding result [2]: recognises
B1: MAGE-A10^SLL-TCR (TCR, V domains shown)
Valpha: DQQVKQNSPSLSVQEGRISILNCDYTNSMFDYFLWYKKYPAEGPTFLISISSIKDKNEDGRFTVFLNKSAKHLSLHIVPSQPGDSAVYFCAANSNSGYALNFGKGTSLLVTP
Vbeta: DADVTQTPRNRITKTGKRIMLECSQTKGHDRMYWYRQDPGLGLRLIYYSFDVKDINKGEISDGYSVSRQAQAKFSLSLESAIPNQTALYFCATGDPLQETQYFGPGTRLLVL
